For the experiment, the target named is endogenous CD28 (human, on Jurkat cells and primary T lymphocytes) (human) (UniProt P10747). As to the kind of experiment: cell-based or functional assay.

Take anti-CD28 Mab 28.2 (antibody): the % of dead cells, 3G6-CD28 transduced T lymphocytes, OKT3/28.2, day 3 (trypan blue) was determined as 10%; the % of dead cells, NTP transduced T lymphocytes, OKT3/28.2, day 6 (trypan blue) turned out to be 15%; the IL-2 secretion with PMA and ionomycin (ELISA, 24 hours), Jurkat-NTP stood at 960 pg/mL; the IL-2 secretion with PMA and ionomycin (ELISA, 24 hours), both cell populations was found to be 3 fold.

The record behind these values is patent US20020018783A1.
